Measured values from publication PMC9482650, “Quantitative fragmentomics allow affinity mapping of interactomes” (Nature Communications, 2022).

T1: RAPGEF6, Q8TEU7
T1 sequence (Q8TEU7 525-625, limits assumed, looked up): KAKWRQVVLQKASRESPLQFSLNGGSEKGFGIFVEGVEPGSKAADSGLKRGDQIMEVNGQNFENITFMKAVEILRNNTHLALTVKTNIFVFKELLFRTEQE

T2: CARD11, Q9BXL7
T2 sequence (Q9BXL7 662-765, limits assumed, looked up): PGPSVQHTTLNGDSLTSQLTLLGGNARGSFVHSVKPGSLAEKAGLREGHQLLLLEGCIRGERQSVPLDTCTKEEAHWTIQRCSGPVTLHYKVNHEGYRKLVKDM

T3: APBA2_2, Q99767
T3 sequence (Q99767 654-744, limits assumed, looked up): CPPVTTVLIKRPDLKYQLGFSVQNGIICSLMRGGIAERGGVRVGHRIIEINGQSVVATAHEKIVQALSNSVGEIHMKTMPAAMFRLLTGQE

T4: SNTB1, Q13884
T4 sequence (Q13884 107-205, limits assumed, looked up): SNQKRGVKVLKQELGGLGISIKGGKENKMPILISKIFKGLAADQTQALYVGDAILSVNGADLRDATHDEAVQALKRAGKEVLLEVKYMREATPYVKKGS

T5: SNTG1, Q9NSN8
T5 sequence (Q9NSN8 52-150, limits assumed, looked up): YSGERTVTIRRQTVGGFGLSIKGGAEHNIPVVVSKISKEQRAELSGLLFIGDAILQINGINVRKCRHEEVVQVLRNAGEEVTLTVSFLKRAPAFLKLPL

T6: DFNB31_1, Q9P202
T6 sequence (Q9P202 135-233, limits assumed, looked up): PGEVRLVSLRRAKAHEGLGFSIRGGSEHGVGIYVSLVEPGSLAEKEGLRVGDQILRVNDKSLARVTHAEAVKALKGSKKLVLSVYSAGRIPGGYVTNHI

T7: HTRA3, P83110
T7 sequence (P83110 354-453, limits assumed, looked up): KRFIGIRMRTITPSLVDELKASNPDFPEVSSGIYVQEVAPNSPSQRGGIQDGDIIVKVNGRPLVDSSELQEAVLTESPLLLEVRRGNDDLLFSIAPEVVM

T8: TJP3_3, O95049
T8 sequence (O95049 375-456, limits assumed, looked up): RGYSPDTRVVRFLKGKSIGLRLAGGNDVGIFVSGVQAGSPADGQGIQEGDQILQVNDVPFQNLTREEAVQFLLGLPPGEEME

T9: LNX2_2, Q8N448
T9 sequence (Q8N448 334-432, limits assumed, looked up): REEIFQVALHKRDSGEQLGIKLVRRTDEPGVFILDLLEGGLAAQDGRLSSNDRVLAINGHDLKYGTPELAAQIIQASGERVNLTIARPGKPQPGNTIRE

T10: DFNB31_3, Q9P202
T10 sequence (Q9P202 811-907, limits assumed, looked up): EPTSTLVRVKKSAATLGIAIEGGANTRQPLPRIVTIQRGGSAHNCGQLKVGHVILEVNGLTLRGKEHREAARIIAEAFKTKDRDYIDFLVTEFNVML

T11: DFNB31_2, Q9P202
T11 sequence (Q9P202 274-371, limits assumed, looked up): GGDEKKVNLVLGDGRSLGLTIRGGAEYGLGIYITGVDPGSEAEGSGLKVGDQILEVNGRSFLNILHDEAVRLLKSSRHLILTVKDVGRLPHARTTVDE

T12: MPDZ_12, O75970
T12 sequence (O75970 1857-1958, limits assumed, looked up): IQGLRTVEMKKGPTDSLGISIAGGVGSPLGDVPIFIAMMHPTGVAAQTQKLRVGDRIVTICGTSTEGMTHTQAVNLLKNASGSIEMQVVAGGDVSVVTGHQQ

T13: ARHGAP21, Q5T5U3
T13 sequence (Q5T5U3 45-169, limits assumed, looked up): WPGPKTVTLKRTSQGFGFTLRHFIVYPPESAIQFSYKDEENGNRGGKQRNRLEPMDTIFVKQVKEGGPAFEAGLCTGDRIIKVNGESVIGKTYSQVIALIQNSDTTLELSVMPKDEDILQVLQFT

B1: GJD4, Q96KN9 (peptide)
chain: HLRARKSEWV
B2: ERBB2, P04626 (peptide)
chain: PEYLGLDVPV

These binders were tested against PTPN3, P26045 (assay: holdup assay). Settings: plain residues with an end cap or a label only (N-terminal biotin on a linker: ado-ado).
PTPN3, P26045, sequence (P26045 505-587): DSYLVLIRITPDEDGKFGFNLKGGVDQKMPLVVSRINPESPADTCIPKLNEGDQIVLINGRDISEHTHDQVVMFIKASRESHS
Set-up: key: below the threshold = too weak to quantify, mostly under pKd 3.1 to 4
With B1 the pKd was 3.99. B2 was tested, and the pKd was “below the threshold”.

Each binder was assayed against T1, RAPGEF6, Q8TEU7 (assay: holdup assay). Settings: plain residues with an end cap or a label only (N-terminal biotin on a linker: ado-ado).
Set-up: key: below the threshold = too weak to quantify, mostly under pKd 3.1 to 4
In the case of B1, the pKd is reported as 3.5. B2 was tested, and the pKd was “below the threshold”.

Each binder was assayed against T2, CARD11, Q9BXL7 (assay: holdup assay). Settings: plain residues with an end cap or a label only (N-terminal biotin on a linker: ado-ado).
Set-up: key: below the threshold = too weak to quantify, mostly under pKd 3.1 to 4
With B1 the pKd was “below the threshold”. B2 was tested, and the pKd was “below the threshold”.

Each binder was assayed against MAGI2_6, Q86UL8 (assay: holdup assay). Settings: plain residues with an end cap or a label only (N-terminal biotin on a linker: ado-ado).
MAGI2_6, Q86UL8, sequence (Q86UL8 1141-1229): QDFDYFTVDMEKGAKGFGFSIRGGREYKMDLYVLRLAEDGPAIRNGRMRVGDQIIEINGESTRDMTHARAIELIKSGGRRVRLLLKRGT
Set-up: key: below the threshold = too weak to quantify, mostly under pKd 3.1 to 4
Binder B1 has a pKd of 3.85. For B2, the pKd was “below the threshold”.

Each binder was assayed against NHERF4_2, Q86UT5 (assay: holdup assay). Settings: plain residues with an end cap or a label only (N-terminal biotin on a linker: ado-ado).
NHERF4_2, Q86UT5, sequence (Q86UT5 220-308): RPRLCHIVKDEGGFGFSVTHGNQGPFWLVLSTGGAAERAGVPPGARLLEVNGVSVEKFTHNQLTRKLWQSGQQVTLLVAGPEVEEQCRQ
Set-up: key: below the threshold = too weak to quantify, mostly under pKd 3.1 to 4
B1 was tested, and the pKd was “below the threshold”. For B2, the pKd was “below the threshold”.

Each binder was assayed against T3, APBA2_2, Q99767 (assay: holdup assay). Settings: plain residues with an end cap or a label only (N-terminal biotin on a linker: ado-ado).
Set-up: key: below the threshold = too weak to quantify, mostly under pKd 3.1 to 4
B1 was tested, and the pKd was “below the threshold”. B2 was tested, and the pKd was “below the threshold”.

The binders below were run against T4, SNTB1, Q13884 (assay: holdup assay). Settings: plain residues with an end cap or a label only (N-terminal biotin on a linker: ado-ado).
Set-up: key: below the threshold = too weak to quantify, mostly under pKd 3.1 to 4
B1 was tested, and the pKd was “below the threshold”. B2 gave a pKd of 3.92.

These binders were tested against GIPC2, Q8TF65 (assay: holdup assay). Settings: plain residues with an end cap or a label only (N-terminal biotin on a linker: ado-ado).
GIPC2, Q8TF65, sequence (Q8TF65 112-203): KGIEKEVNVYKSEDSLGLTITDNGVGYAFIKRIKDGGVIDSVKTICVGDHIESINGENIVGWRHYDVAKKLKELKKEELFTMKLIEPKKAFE
Set-up: key: below the threshold = too weak to quantify, mostly under pKd 3.1 to 4
In the case of B1, the pKd is reported as “below the threshold”. With B2 the pKd was “below the threshold”.

These binders were tested against T5, SNTG1, Q9NSN8 (assay: holdup assay). Settings: plain residues with an end cap or a label only (N-terminal biotin on a linker: ado-ado).
Set-up: key: below the threshold = too weak to quantify, mostly under pKd 3.1 to 4
In the case of B1, the pKd is reported as 3.6. Binder B2 has a pKd of 3.55.

What follows are binders tested against T6, DFNB31_1, Q9P202 (assay: holdup assay). Settings: plain residues with an end cap or a label only (N-terminal biotin on a linker: ado-ado).
Set-up: key: below the threshold = too weak to quantify, mostly under pKd 3.1 to 4
For B1, the pKd was “below the threshold”. With B2 the pKd was “below the threshold”.

These binders were tested against PICK1, Q9NRD5 (assay: holdup assay). Settings: plain residues with an end cap or a label only (N-terminal biotin on a linker: ado-ado).
PICK1, Q9NRD5, sequence (Q9NRD5 17-115): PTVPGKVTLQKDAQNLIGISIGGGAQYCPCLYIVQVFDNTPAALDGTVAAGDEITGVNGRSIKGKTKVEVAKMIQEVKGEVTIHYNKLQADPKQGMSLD
Set-up: key: below the threshold = too weak to quantify, mostly under pKd 3.1 to 4
With B1 the pKd was “below the threshold”. B2 was tested, and the pKd was 4.25.

These binders were tested against SNX27, Q96L92 (assay: holdup assay). Settings: plain residues with an end cap or a label only (N-terminal biotin on a linker: ado-ado).
Set-up: key: below the threshold = too weak to quantify, mostly under pKd 3.1 to 4
With B1 the pKd was 4.38. In the case of B2, the pKd is reported as 3.94.

These binders were tested against FRMPD4, Q14CM0 (assay: holdup assay). Settings: plain residues with an end cap or a label only (N-terminal biotin on a linker: ado-ado).
FRMPD4, Q14CM0, sequence (Q14CM0 67-160): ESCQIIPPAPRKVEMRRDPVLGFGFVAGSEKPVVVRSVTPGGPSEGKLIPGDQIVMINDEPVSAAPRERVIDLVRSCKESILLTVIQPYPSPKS
Set-up: key: below the threshold = too weak to quantify, mostly under pKd 3.1 to 4
For B1, the pKd was “below the threshold”. Work on B2 yielded a pKd of 4.39.

What follows are binders tested against T7, HTRA3, P83110 (assay: holdup assay). Settings: plain residues with an end cap or a label only (N-terminal biotin on a linker: ado-ado).
Set-up: key: below the threshold = too weak to quantify, mostly under pKd 3.1 to 4
B1 showed a pKd of 5.81. For B2, the pKd was “below the threshold”.

Each binder was assayed against Inadl_4, Q8NI35 (assay: holdup assay). Settings: plain residues with an end cap or a label only (N-terminal biotin on a linker: ado-ado).
Inadl_4, Q8NI35, sequence (Q8NI35 547-651): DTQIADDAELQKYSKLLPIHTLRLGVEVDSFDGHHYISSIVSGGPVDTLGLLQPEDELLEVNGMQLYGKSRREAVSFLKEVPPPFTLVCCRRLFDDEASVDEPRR
Set-up: key: below the threshold = too weak to quantify, mostly under pKd 3.1 to 4
B1 was tested, and the pKd was “below the threshold”. With B2 the pKd was “below the threshold”.

Each binder was assayed against T8, TJP3_3, O95049 (assay: holdup assay). Settings: plain residues with an end cap or a label only (N-terminal biotin on a linker: ado-ado).
Set-up: key: below the threshold = too weak to quantify, mostly under pKd 3.1 to 4
Binder B1 has a pKd of 4.63. In the case of B2, the pKd is reported as “below the threshold”.

These binders were tested against IL16_3, Q14005 (assay: holdup assay). Settings: plain residues with an end cap or a label only (N-terminal biotin on a linker: ado-ado).
IL16_3, Q14005, sequence (Q14005 1107-1207): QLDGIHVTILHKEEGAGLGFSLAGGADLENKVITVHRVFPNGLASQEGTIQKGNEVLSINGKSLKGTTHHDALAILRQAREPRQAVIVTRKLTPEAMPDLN
Set-up: key: below the threshold = too weak to quantify, mostly under pKd 3.1 to 4
B1 was tested, and the pKd was “below the threshold”. For B2, the pKd was “below the threshold”.

Each binder was assayed against T9, LNX2_2, Q8N448 (assay: holdup assay). Settings: plain residues with an end cap or a label only (N-terminal biotin on a linker: ado-ado).
Set-up: key: below the threshold = too weak to quantify, mostly under pKd 3.1 to 4
For B1, the pKd was 5. Work on B2 yielded a pKd of 3.96.

These binders were tested against Inadl_10, Q8NI35 (assay: holdup assay). Settings: plain residues with an end cap or a label only (N-terminal biotin on a linker: ado-ado).
Inadl_10, Q8NI35, sequence (Q8NI35 1673-1763): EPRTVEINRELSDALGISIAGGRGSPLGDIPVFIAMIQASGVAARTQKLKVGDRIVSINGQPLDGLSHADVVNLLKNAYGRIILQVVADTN
Set-up: key: below the threshold = too weak to quantify, mostly under pKd 3.1 to 4
B1 was tested, and the pKd was “below the threshold”. With B2 the pKd was “below the threshold”.

Each binder was assayed against T10, DFNB31_3, Q9P202 (assay: holdup assay). Settings: plain residues with an end cap or a label only (N-terminal biotin on a linker: ado-ado).
Set-up: key: below the threshold = too weak to quantify, mostly under pKd 3.1 to 4
For B1, the pKd was “below the threshold”. In the case of B2, the pKd is reported as “below the threshold”.

What follows are binders tested against T11, DFNB31_2, Q9P202 (assay: holdup assay). Settings: plain residues with an end cap or a label only (N-terminal biotin on a linker: ado-ado).
Set-up: key: below the threshold = too weak to quantify, mostly under pKd 3.1 to 4
For B1, the pKd was “below the threshold”. With B2 the pKd was “below the threshold”.

What follows are binders tested against SCRIB_1, Q14160 (assay: holdup assay). Settings: plain residues with an end cap or a label only (N-terminal biotin on a linker: ado-ado).
SCRIB_1, Q14160, sequence (Q14160 718-814): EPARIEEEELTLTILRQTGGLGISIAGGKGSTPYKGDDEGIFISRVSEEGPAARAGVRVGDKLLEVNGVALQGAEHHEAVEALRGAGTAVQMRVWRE
Set-up: key: below the threshold = too weak to quantify, mostly under pKd 3.1 to 4
In the case of B1, the pKd is reported as “below the threshold”. In the case of B2, the pKd is reported as “below the threshold”.

The binders below were run against T12, MPDZ_12, O75970 (assay: holdup assay). Settings: plain residues with an end cap or a label only (N-terminal biotin on a linker: ado-ado).
Set-up: key: below the threshold = too weak to quantify, mostly under pKd 3.1 to 4
For B1, the pKd was 3.57. For B2, the pKd was “below the threshold”.

These binders were tested against NOS1, P29475 (assay: holdup assay). Settings: plain residues with an end cap or a label only (N-terminal biotin on a linker: ado-ado).
NOS1, P29475, sequence (P29475 9-101): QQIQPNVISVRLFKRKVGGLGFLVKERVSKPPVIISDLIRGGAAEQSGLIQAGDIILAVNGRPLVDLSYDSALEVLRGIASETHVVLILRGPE
Set-up: key: below the threshold = too weak to quantify, mostly under pKd 3.1 to 4
Binder B1 has a pKd of 4.89. Work on B2 yielded a pKd of 3.9.

What follows are binders tested against T13, ARHGAP21, Q5T5U3 (assay: holdup assay). Settings: plain residues with an end cap or a label only (N-terminal biotin on a linker: ado-ado).
Set-up: key: below the threshold = too weak to quantify, mostly under pKd 3.1 to 4
B1 showed a pKd of 3.56. For B2, the pKd was 4.12.
